According to IntAct's records for PubMed 31515488:

B1: Centrosomal protein of 55 kDa (Homo sapiens), Q53EZ4 (parent)
chain: MSSRSTKDLIKSKWGSKPSNSKSETTLEKLKGEIAHLKTSVDEITSGKGKLTDKERHRLLEKIRVLEAEKEKNAYQLTEKDKEIQRLRDQLKARYSTTTLLEQLEETTREGERREQVLKALSEEKDVLKQQLSAATSRIAELESKTNTLRLSQTVAPNCFNSSINNIHEMEIQLKDALEKNQQWLVYDQQREVYVKGLLAKIFELEKKTETAAHSLPQQTKKPESEGYLQEEKQKCYNDLLASAKKDLEVERQTITQLSFELSEFRRKYEETQKEVHNLNQLLYSQRRADVQHLEDDRHKTEKIQKLREENDIARGKLEEEKKRSEELLSQVQFLYTSLLKQQEEQTRVALLEQQMQACTLDFENEKLDRQHVQHQLHVILKELRKARNQITQLESLKQLHEFAITEPLVTFQGETENREKVAASPKSPTAALNESLVECPKCNIQYPATEHRDLLVHVEYCSK
partner: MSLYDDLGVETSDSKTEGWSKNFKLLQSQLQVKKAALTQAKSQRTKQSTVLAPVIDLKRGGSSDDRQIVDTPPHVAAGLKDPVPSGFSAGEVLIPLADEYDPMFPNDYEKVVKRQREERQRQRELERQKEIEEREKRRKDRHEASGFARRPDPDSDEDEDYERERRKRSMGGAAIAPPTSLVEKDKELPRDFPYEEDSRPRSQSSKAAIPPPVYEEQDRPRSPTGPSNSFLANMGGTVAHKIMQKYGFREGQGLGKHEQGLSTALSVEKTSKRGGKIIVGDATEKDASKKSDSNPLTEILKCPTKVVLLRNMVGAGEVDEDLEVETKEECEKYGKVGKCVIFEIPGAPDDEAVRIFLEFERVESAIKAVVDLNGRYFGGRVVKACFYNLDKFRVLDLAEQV
B2: Protein FAM9B (Homo sapiens), Q8IZU0 (parent)
chain: MAAWGKKHAGKDPVRDECEERNRFTETREEDVTDEHGEREPFAETDEHTGANTKKPEDTAEDLTAKRKRMKMDKTCSKTKNKSKHALRKKQLKRQKRDYIHSLKLLNVLEEYITDEQKEEEEEEGEEEELIRIFQEQQKKWQQYRSVRRERLKEMKLLRDQFVKALEDFEDLCDRVFSDEDSELDN
partner: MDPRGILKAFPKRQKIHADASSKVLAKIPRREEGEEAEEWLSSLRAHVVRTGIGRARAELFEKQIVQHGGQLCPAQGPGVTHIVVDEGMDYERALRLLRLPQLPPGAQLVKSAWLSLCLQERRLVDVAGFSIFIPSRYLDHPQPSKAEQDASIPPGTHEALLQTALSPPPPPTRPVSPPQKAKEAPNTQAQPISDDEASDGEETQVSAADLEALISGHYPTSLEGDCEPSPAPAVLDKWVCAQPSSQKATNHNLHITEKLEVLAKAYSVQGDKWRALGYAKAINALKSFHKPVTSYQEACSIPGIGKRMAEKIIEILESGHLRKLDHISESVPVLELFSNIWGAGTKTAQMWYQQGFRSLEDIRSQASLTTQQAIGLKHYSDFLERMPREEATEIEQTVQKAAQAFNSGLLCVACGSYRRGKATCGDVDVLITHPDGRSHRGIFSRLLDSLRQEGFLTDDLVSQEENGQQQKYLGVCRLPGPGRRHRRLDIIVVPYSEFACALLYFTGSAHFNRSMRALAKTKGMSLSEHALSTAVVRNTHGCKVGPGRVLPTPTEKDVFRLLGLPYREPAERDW
B3: Coiled-coil domain-containing protein 70 (Homo sapiens), Q6NSX1 (parent)
chain: MFSFKVSRWMGLACFRSLAASSPSIRQKKLMHKLQEEKAFREEMKIFREKIEDFREEMWTFRGKIHAFRGQILGFWEEERPFWEEEKTFWKEEKSFWEMEKSFREEEKTFWKKYRTFWKEDKAFWKEDNALWERDRNLLQEDKALWEEEKALWVEERALLEGEKALWEDKTSLWEEENALWEEERAFWMENNGHIAGEQMLEDGPHNANRGQRLLAFSRGRA
partner: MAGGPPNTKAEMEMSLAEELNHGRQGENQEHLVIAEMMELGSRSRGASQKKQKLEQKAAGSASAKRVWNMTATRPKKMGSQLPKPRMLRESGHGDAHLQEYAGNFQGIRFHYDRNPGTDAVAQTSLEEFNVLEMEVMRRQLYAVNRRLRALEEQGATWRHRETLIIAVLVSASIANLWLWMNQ
B4: 5-phosphohydroxy-L-lysine phospho-lyase (Homo sapiens), Q8IUZ5 (parent)
chain: MAADQRPKADTLALRQRLISSSCRLFFPEDPVKIVRAQGQYMYDEQGAEYIDCISNVAHVGHCHPLVVQAAHEQNQVLNTNSRYLHDNIVDYAQRLSETLPEQLCVFYFLNSGSEANDLALRLARHYTGHQDVVVLDHAYHGHLSSLIDISPYKFRNLDGQKEWVHVAPLPDTYRGPYREDHPNPAMAYANEVKRVVSSAQEKGRKIAAFFAESLPSVGGQIIPPAGYFSQVAEHIRKAGGVFVADEIQVGFGRVGKHFWAFQLQGKDFVPDIVTMGKSIGNGHPVACVAATQPVARAFEATGVEYFNTFGGSPVSCAVGLAVLNVLEKEQLQDHATSVGSFLMQLLGQQKIKHPIVGDVRGVGLFIGVDLIKDEATRTPATEEAAYLVSRLKENYVLLSTDGPGRNILKFKPPMCFSLDNARQVVAKLDAILTDMEEKVRSCETLRLQP
partner: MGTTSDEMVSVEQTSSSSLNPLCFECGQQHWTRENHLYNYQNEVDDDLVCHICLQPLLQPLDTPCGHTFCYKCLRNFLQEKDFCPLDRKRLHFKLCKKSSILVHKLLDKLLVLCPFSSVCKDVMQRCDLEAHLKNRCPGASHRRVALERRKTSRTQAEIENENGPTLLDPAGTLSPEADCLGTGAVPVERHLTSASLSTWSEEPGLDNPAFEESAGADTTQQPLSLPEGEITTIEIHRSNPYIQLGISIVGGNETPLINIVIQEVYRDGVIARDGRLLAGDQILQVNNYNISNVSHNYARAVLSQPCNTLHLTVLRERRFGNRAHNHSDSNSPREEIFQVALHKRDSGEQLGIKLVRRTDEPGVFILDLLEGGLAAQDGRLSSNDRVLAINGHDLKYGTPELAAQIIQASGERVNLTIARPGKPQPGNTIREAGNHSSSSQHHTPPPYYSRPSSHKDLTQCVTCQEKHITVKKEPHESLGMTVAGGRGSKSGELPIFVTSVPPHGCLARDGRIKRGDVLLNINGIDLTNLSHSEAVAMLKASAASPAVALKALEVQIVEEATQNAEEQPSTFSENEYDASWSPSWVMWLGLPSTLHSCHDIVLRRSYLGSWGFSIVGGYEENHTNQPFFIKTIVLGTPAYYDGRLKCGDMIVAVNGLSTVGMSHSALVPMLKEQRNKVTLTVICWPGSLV
B5: DNA endonuclease RBBP8 (Homo sapiens), Q99708 (parent)
chain: MNISGSSCGSPNSADTSSDFKDLWTKLKECHDREVQGLQVKVTKLKQERILDAQRLEEFFTKNQQLREQQKVLHETIKVLEDRLRAGLCDRCAVTEEHMRKKQQEFENIRQQNLKLITELMNERNTLQEENKKLSEQLQQKIENDQQHQAAELECEEDVIPDSPITAFSFSGVNRLRRKENPHVRYIEQTHTKLEHSVCANEMRKVSKSSTHPQHNPNENEILVADTYDQSQSPMAKAHGTSSYTPDKSSFNLATVVAETLGLGVQEESETQGPMSPLGDELYHCLEGNHKKQPFEESTRNTEDSLRFSDSTSKTPPQEELPTRVSSPVFGATSSIKSGLDLNTSLSPSLLQPGKKKHLKTLPFSNTCISRLEKTRSKSEDSALFTHHSLGSEVNKIIIQSSNKQILINKNISESLGEQNRTEYGKDSNTDKHLEPLKSLGGRTSKRKKTEEESEHEVSCPQASFDKENAFPFPMDNQFSMNGDCVMDKPLDLSDRFSAIQRQEKSQGSETSKNKFRQVTLYEALKTIPKGFSSSRKASDGNCTLPKDSPGEPCSQECIILQPLNKCSPDNKPSLQIKEENAVFKIPLRPRESLETENVLDDIKSAGSHEPIKIQTRSDHGGCELASVLQLNPCRTGKIKSLQNNQDVSFENIQWSIDPGADLSQYKMDVTVIDTKDGSQSKLGGETVDMDCTLVSETVLLKMKKQEQKGEKSSNEERKMNDSLEDMFDRTTHEEYESCLADSFSQAADEEEELSTATKKLHTHGDKQDKVKQKAFVEPYFKGDERETSLQNFPHIEVVRKKEERRKLLGHTCKECEIYYADMPAEEREKKLASCSRHRFRYIPPNTPENFWEVGFPSTQTCMERGYIKEDLDPCPRPKRRQPYNAIFSPKGKEQKT
B6: Prolyl 4-hydroxylase subunit alpha-3 (Homo sapiens), Q7Z4N8 (parent)
chain: MGPGARLAALLAVLALGTGDPERAAARGDTFSALTSVARALAPERRLLGLLRRYLRGEEARLRDLTRFYDKVLSLHEDSTTPVANPLLAFTLIKRLQSDWRNVVHSLEASENIRALKDGYEKVEQDLPAFEDLEGAARALMRLQDVYMLNVKGLARGVFQRVTGSAITDLYSPKRLFSLTGDDCFQVGKVAYDMGDYYHAIPWLEEAVSLFRGSYGEWKTEDEASLEDALDHLAFAYFRAGNVSCALSLSREFLLYSPDNKRMARNVLKYERLLAESPNHVVAEAVIQRPNIPHLQTRDTYEGLCQTLGSQPTLYQIPSLYCSYETNSNAYLLLQPIRKEVIHLEPYIALYHDFVSDSEAQKIRELAEPWLQRSVVASGEKQLQVEYRISKSAWLKDTVDPKLVTLNHRIAALTGLDVRPPYAEYLQVVNYGIGGHYEPHFDHATSPSSPLYRMKSGNRVATFMIYLSSVEAGGATAFIYANLSVPVVRNAALFWWNLHRSGEGDSDTLHAGCPVLVGDKWVANKWIHEYGQEFRRPCSSSPED
partner: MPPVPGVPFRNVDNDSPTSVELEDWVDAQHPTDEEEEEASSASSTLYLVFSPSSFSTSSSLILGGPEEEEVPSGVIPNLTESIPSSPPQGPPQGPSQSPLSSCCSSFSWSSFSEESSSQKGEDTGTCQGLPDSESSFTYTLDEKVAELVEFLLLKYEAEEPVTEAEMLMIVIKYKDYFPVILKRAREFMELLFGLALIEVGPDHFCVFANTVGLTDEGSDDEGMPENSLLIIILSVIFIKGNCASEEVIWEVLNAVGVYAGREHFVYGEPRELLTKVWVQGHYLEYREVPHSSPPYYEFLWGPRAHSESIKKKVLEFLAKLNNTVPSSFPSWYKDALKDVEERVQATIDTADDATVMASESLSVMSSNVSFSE
B7: FXYD domain-containing ion transport regulator 3 (Homo sapiens), Q14802 (parent)
chain: MQKVTLGLLVFLAGFPVLDANDLEDKNSPFYYDWHSLQVGGLICAGVLCAMGIIIVMSAKCKCKFGQKSGHHPGETPPLITPGSAQS
partner: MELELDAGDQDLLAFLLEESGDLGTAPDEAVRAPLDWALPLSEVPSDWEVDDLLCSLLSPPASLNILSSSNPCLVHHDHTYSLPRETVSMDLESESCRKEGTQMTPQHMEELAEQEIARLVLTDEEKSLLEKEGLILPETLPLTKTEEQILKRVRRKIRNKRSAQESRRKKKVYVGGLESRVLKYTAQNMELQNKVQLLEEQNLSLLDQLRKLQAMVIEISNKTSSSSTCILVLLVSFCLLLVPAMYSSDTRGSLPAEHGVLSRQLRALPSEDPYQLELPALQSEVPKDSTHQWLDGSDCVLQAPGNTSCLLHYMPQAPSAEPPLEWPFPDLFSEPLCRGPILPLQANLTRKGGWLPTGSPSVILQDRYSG

Variants of: B1
Settings: with spf45_human RBM17, Q96I25

effect of a mutation on the interaction | Variant
with no effect | H57Q
with no effect | A244P
with no effect | C236R

Variants of: B2
Settings: with dpoll_human POLL

effect of a mutation on the interaction | Variant
with no effect | R23H

Variants of: B3
Settings: with fate1_human FATE1, Q969F0

effect of a mutation on the interaction | Variant
with no effect | M200V
with no effect | R62Q

Variants of: B4
Settings: with lnx2_human LNX2, Q8N448

effect of a mutation on the interaction | Variant
with no effect | H126R

Variants of: B5
Settings: with lims1_human LIMS1, P48059
lims1_human LIMS1, P48059, sequence (P48059 whole entry): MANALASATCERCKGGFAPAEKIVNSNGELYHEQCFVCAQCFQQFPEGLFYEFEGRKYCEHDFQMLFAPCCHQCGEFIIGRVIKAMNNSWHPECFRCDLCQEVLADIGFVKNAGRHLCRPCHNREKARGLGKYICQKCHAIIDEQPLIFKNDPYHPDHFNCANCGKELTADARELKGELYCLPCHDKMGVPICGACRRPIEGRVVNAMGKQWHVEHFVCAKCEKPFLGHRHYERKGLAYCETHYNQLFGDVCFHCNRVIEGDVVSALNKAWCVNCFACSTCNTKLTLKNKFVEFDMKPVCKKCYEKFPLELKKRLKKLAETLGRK

effect of a mutation on the interaction | Variant
with no effect | E320K

Variants of: B6
Settings: with magc2_human MAGEC2, Q9UBF1

effect of a mutation on the interaction | Variant
disrupting interaction strength | S378L

Variants of: B7
Settings: with creb3_human CREB3, O43889

effect of a mutation on the interaction | Variant
disrupting interaction strength | G40S
